Experimental findings from article PMC3413700 are described below.

This data set deals with Irr (Rhodobacter sphaeroides 2.4.1). The experiment in a line: EMSA. Particulars: Mn2+ favored complex formation (1 mM MnCl2); Mn2+ in Kd assay not stated; EMSA: 20 mM TB pH 7.8, 5% glycerol, 1 mM DTT, 1 ug salmon sperm DNA, 0.1 mg/ml BSA, with or without 1 mM MnCl2, 15 ul, ~3 fmol probe, 30 min at 32 C; 6% PAGE ….

One may read the Kd as the free concentration of one partner at which half of the binding sites on the other are occupied at equilibrium, for simple one-to-one binding. A higher Kd goes with lower affinity. For the substance ccpA upstream region, the Kd was 900 nM.
As for mbfA upstream region, the figure is 800 nM.
